The term Km denotes the concentration of substrate that gives half-maximal velocity.

Substrate in this series: O=C(O)C(=O)O
Put plainly: purified protein. To be noted: pH 3.1, 37 °C, MBTH 0.11 mM, DMAB 1.6 mM, HRP 0.1 U/ml, potassium oxalate, concentrations up to 400 uM, substrate (product) inhibition data excluded.

B1: barley oxalate oxidase (OxOx) (Hordeum vulgare) (protein)
chain: SDPDPLQDFCVADLDGKAVSVNGHTCKPMSEAGDDFLFSSKLTKAGNTSTPNGSAVTELDVAEWPGTNTLGVSMNRVDFAPGGTNPPHIHPRATEIGMVMKGELLVGILGSLDSGNKLYSRVVRAGETFVIPRGLMHFQFNVGKTEAYMVVSFNSQNPGIVFVPLTLFGSDPPIPTPVLTKALRVEAGVVELLKSKFAGGS
As for B1, the Km is 256 µM.

Source of the values: article PMC10174515.
